The target of the series is T1, Bay C12-preferring acyl-ACP thioesterase (Umbellularia californica, UniProt Q41635).
T1 sequence (Q41635 84-382): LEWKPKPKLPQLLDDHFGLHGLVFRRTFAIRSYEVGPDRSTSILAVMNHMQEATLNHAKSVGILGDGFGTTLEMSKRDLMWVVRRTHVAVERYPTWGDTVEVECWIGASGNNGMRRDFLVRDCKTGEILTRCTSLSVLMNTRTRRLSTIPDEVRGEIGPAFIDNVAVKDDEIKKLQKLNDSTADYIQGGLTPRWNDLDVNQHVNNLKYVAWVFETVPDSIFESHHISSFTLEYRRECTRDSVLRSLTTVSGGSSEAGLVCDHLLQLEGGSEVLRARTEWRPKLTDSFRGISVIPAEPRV
Description: Bay thioesterase substrate specificity as a function of chain length, ammonium sulfate fraction. The note with it: C8-ACP activity set to 1.0; label is acyl chain length of the acyl-ACP. Details: The cotyledons from such seeds are dissected from the other seed parts and stored frozen at -70°; This comprises the source tissue for enzyme extraction; from tissue; host or cells: immature seed cotyledons of Umbellularia californica. Format: biochemical. As for the experimental part:
To assay for C12 thioesterase activity the following mixture is incubated at 30° for 30 min: "buffer" comprising 7mM KH2PO4-KOH pH 8, 20% v/v glycerol, 1mM dithiothreitol (DTT), 0.1% v/v Triton X100; sample to be tested for activity in the same or similar buffer as the "extraction buffer" described in Example 2; […] and final lauroyl-ACP concentration of 0.5µM. Lauroyl-ACP substrate is prepared according to the method of Rock et al (Methods in Enzymology (1981) 72:397-403), using ACP prepared from Escherichia coli by the method of Rock and Cronan (Methods in Enzymology (1981) 71:341-351). The laurate is radiolabeled in the carboxylate group at a specific radioactivity of 50-60µCi/µmol.
The reaction is stopped by adding 0.5ml cold (0°) 10% v/v acetic acid. The fatty acid product of the hydrolytic enzyme action is extracted away from the unhydrolyzed substrate by adding 1ml diethyl ether and mixing vigorously. After settling for a few minutes the upper ether layer is transferred to 5ml scintillation fluid for determination of radioactivity by liquid scintillation spectrometry. Additional ether extractions may be performed to recover remaining traces of the reaction product for more accurate quantitation of the enzyme activity if desired. The amount of ether-extracted radioactivity is a direct measure of C12-preferring acyl-ACP thioesterase activity, provided the amount of enzyme is not sufficient to hydrolyze more than about 25% of the substrate. With greater activity than this the relationship between radioactivity in the ether layer and the quantity of enzyme becomes markedly nonlinear. The enzyme preparation must then be diluted appropriately to bring the activity into the linear range of the assay.
The crude extract is subjected to ammonium sulfate fractionation as follows. Sufficient solid ammonium sulfate is gradually added with stirring over 30 min to achieve 70% saturation. The preparation is then stirred for a further 30 min. After centrifuging as described above, the pelleted material is resuspended in extraction buffer (2ml/g original tissue weight) and stirred for 10 min until dissolved. Ammonium sulfate is then added as before, but this time only sufficient to achieve 50% saturation. After centrifuging as before, the supernatant fraction is discarded. The pelleted material, which contains the C12-preferring acyl-ACP thioesterase, may be frozen by immersion in liquid nitrogen and then stored at -70° at this stage if desired. The resulting material is referred to as the "ammonium sulfate fraction." Very little of the C12-preferring acyl-ACP thioesterase activity is lost if the pellet is frozen very rapidly. […]
On to 14:0-ACP, for which the “Relative Thioesterase Activity” value is given as 4.0.

Consider 16:0-ACP, for which the “Relative Thioesterase Activity” value is 4.7.

For decanoyl-ACP [10:0-ACP], the “Relative Thioesterase Activity” value is listed as 2.7.

As to lauroyl-ACP [12:0-ACP], the “Relative Thioesterase Activity” value is listed as 24.0.

The values above are taken from patent EP1298214A2, “Plant thioesterases” (Calgene LLC, priority 1990, dated 1991).
